Laboratory results as given in patent US20200407436A1 (published 2020).

Columns and labels:
[1] = target: T1, full length TGF-beta 1 including the latency associated peptide (human, UniProt P01137 30-390); experiment: analytical gel filtration
T1 construct: also called latent TGF-beta 1; human Latency-associated Peptide and TGF-beta 1

[2] = target: TGF-beta produced and activated by BxPC3 cells; experiment: cell-based or functional assay
[3] = target: endogenously produced TGF-beta in the RPTEC and HRF co-culture system; experiment: cell-based or functional assay
mature human TGF-beta 1 [4] = target: T2, mature human TGF-beta 1 (human, UniProt P01137 279-390); experiment: cell-based or functional assay
T2 sequence (P01137 279-390 limits assumed): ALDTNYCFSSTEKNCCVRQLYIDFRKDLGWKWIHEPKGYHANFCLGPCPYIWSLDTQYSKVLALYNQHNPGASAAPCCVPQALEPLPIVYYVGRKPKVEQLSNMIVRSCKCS

mature human TGF-beta 2 [5] = target: T3, mature human TGF-beta 2 (human, UniProt P61812 303-414); experiment: cell-based or functional assay
T3 sequence: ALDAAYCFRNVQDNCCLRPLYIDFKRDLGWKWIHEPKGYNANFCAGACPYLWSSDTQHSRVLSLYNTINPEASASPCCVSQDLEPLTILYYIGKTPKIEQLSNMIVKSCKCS

mature human TGF-beta 3 [6] = target: T4, mature human TGF-beta 3 (human, UniProt P10600 301-412); experiment: cell-based or functional assay
T4 sequence: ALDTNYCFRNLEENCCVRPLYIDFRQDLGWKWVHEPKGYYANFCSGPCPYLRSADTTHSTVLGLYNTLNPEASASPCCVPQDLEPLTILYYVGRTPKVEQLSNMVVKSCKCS

mature human TGF-beta 1 [7] = target: T2, mature human TGF-beta 1; experiment: SPR Biacore T200, human TGF-beta amine-coupled (~20 RU), E. coli derived Fab as analyte; heterogeneous fit, component 1 (KD1; believed occluded)
Procedure: (§1) Human TGF-β isoforms 1, 2, and 3 (Peprotech) were immobilised on CMS Series S chip via amine coupling chemistry on Flowcell 2, 3 and 4 (respectively) to a level of approximately 20 RU. HBS-EP buffer (10 mM HEPES pH 7.4, 0.15 M NaCl, 3 mM EDTA, 0.05% Surfactant P20, GE Healthcare) was used as the running buffer. […] The surface was regenerated by 2×10 μL injection of 10 mM HCl at a flowrate of 10 uL/min.
(§2) Background subtraction binding curves were analysed using the T200 evaluation software (version 1.0; GE Healthcare) following standard procedures. Kinetic parameters were determined using heterogeneous fitting algorithm with RI=0), as described in Example 3, and the values are provided in Table 4.

mature human TGF-beta 2 [8] = target: T3, mature human TGF-beta 2; experiment: as above
Procedure: as §1, §2

mature human TGF-beta 3 [9] = target: T4, mature human TGF-beta 3; experiment: as above
Procedure: as §1, §2

mature human TGF-beta 1 [10] = target: T2, mature human TGF-beta 1; experiment: SPR Biacore T200, human TGF-beta amine-coupled (~20 RU), E. coli derived Fab as analyte; heterogeneous fit, component 1 (ka1; believed occluded)
Procedure: as §1, §2

mature human TGF-beta 2 [11] = target: T3, mature human TGF-beta 2; experiment: as above
Procedure: as §1, §2

mature human TGF-beta 3 [12] = target: T4, mature human TGF-beta 3; experiment: as above
Procedure: as §1, §2

mature human TGF-beta 2 [13] = target: T3, mature human TGF-beta 2; experiment: SPR Biacore T200, human TGF-beta amine-coupled (~20 RU), E. coli derived Fab as analyte; heterogeneous fit, component 2 (KD2; believed unoccluded)
Procedure: as §1, §2

mature human TGF-beta 1 [14] = target: T2, mature human TGF-beta 1; experiment: SPR Biacore T200, human TGF-beta amine-coupled (~20 RU), E. coli derived Fab as analyte; heterogeneous fit, component 2 (kd2; believed unoccluded)
Procedure: as §1, §2

mature human TGF-beta 2 [15] = target: T3, mature human TGF-beta 2; experiment: as above
Procedure: as §1, §2

mature human TGF-beta 3 [16] = target: T4, mature human TGF-beta 3; experiment: as above
Procedure: as §1, §2

T1 sequence (P01137 30-390 limits assumed): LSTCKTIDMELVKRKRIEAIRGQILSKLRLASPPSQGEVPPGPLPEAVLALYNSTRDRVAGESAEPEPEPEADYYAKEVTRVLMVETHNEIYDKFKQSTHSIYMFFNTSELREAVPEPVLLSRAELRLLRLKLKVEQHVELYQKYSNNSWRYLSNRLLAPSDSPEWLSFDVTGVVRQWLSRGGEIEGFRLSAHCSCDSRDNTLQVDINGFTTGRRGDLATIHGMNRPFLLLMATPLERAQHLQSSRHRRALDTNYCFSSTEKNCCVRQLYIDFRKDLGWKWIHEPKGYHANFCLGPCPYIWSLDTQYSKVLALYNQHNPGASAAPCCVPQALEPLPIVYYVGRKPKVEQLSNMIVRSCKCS

B1: humanised antibody 4856 Fab graft gL3gH13 (Fab, V domains shown)
VH: EVQLVESGGGLVKPGGSLRLSCAASGFSLSSYDMSWVRQAPGKGLEWIGIIYGGSGSTWYASWAKGRFTISRDSAKNSVYLQMNSLRAEDTAVYYCARGRDAGAGGSRNGYSLWGQGTLVTVSS
VL: AYDMTQSPSTLSASVGDRVTITCQASESIYSGLAWYQQKPGKAPKLLIYAASDLASGVPSRFSGSGSGTEYTLTISSLQPDDFATYYCQQTWTDGGIDNPFGGGTKVEIKR
notes: Human gamma-1 CH1 (G1m17) and human C-kappa (K1m3); also called 4856gL3gH13
binding result [1]: no binding
Geometric mean IC50, BxPC3 and HEK-Blue TGF-beta reporter gene co-culture assay [2]: 3.95 nM
Geo Mean IC50, Collagen I &III deposition, RPTEC and HRF co-culture [3]: 32.8 nM
Geo Mean IC50, Collagen V deposition, RPTEC and HRF co-culture [3]: 56.3 nM
Geo Mean IC50, Fibronectin deposition, RPTEC and HRF co-culture [3]: 29.7 nM
IC50 (N = 1), Collagen I &III deposition, RPTEC and HRF co-culture [3]: 22.4 nM
IC50 (N = 1), Collagen V deposition, RPTEC and HRF co-culture [3]: 38.9 nM
IC50 (N = 1), Fibronectin deposition, RPTEC and HRF co-culture [3]: 32.6 nM
IC50 (N = 2), Collagen I &III deposition, RPTEC and HRF co-culture [3]: 48 nM
IC50 (N = 2), Collagen V deposition, RPTEC and HRF co-culture [3]: 81.6 nM
IC50 (N = 2), Fibronectin deposition, RPTEC and HRF co-culture [3]: 27.1 nM
Geo Mean IC50, Collagen I &III deposition, RPTEC mono-culture + TGFB1 (mature human TGF-beta 1 [4]): 11.2 nM
Geo Mean IC50, Collagen V deposition, RPTEC mono-culture + TGFB1 (mature human TGF-beta 1 [4]): 43.7 nM
Geo Mean IC50, Fibronectin deposition, RPTEC mono-culture + TGFB1 (mature human TGF-beta 1 [4]): 19.2 nM
IC50 (N = 1), Collagen I &III deposition, RPTEC mono-culture + TGFB1 (mature human TGF-beta 1 [4]): 5.1 nM
IC50 (N = 1), Collagen V deposition, RPTEC mono-culture + TGFB1 (mature human TGF-beta 1 [4]): 13.1 nM
IC50 (N = 1), Fibronectin deposition, RPTEC mono-culture + TGFB1 (mature human TGF-beta 1 [4]): 12.6 nM
IC50 (N = 2), Collagen I &III deposition, RPTEC mono-culture + TGFB1 (mature human TGF-beta 1 [4]): 13.8 nM
IC50 (N = 2), Collagen V deposition, RPTEC mono-culture + TGFB1 (mature human TGF-beta 1 [4]): 92.1 nM
IC50 (N = 2), Fibronectin deposition, RPTEC mono-culture + TGFB1 (mature human TGF-beta 1 [4]): 57.4 nM
IC50 (N = 3), Collagen I &III deposition, RPTEC mono-culture + TGFB1 (mature human TGF-beta 1 [4]): 19.8 nM
IC50 (N = 3), Collagen V deposition, RPTEC mono-culture + TGFB1 (mature human TGF-beta 1 [4]): 69.4 nM
IC50 (N = 3), Fibronectin deposition, RPTEC mono-culture + TGFB1 (mature human TGF-beta 1 [4]): 9.8 nM
Geo Mean IC50, Collagen I &III deposition, RPTEC mono-culture + TGFB2 (mature human TGF-beta 2 [5]): 0.3 nM
Geo Mean IC50, Collagen V deposition, RPTEC mono-culture + TGFB2 (mature human TGF-beta 2 [5]): 3.1 nM
Geo Mean IC50, Fibronectin deposition, RPTEC mono-culture + TGFB2 (mature human TGF-beta 2 [5]): 0.3 nM
IC50 (N = 1), Collagen I &III deposition, RPTEC mono-culture + TGFB2 (mature human TGF-beta 2 [5]): < 2 nM
IC50 (N = 1), Collagen V deposition, RPTEC mono-culture + TGFB2 (mature human TGF-beta 2 [5]): 0.52 nM
IC50 (N = 1), Fibronectin deposition, RPTEC mono-culture + TGFB2 (mature human TGF-beta 2 [5]): 0.16 nM
IC50 (N = 2), Collagen I &III deposition, RPTEC mono-culture + TGFB2 (mature human TGF-beta 2 [5]): 0.6 nM
IC50 (N = 2), Collagen V deposition, RPTEC mono-culture + TGFB2 (mature human TGF-beta 2 [5]): 10.5 nM
IC50 (N = 2), Fibronectin deposition, RPTEC mono-culture + TGFB2 (mature human TGF-beta 2 [5]): 0.76 nM
IC50 (N = 3), Collagen I &III deposition, RPTEC mono-culture + TGFB2 (mature human TGF-beta 2 [5]): 0.13 nM
IC50 (N = 3), Collagen V deposition, RPTEC mono-culture + TGFB2 (mature human TGF-beta 2 [5]): 5.29 nM
IC50 (N = 3), Fibronectin deposition, RPTEC mono-culture + TGFB2 (mature human TGF-beta 2 [5]): 0.22 nM
Geo Mean IC50, Collagen I &III deposition, RPTEC mono-culture + TGFB3 (mature human TGF-beta 3 [6]): 81.2 nM
Geo Mean IC50, Collagen V deposition, RPTEC mono-culture + TGFB3 (mature human TGF-beta 3 [6]): 191 nM
Geo Mean IC50, Fibronectin deposition, RPTEC mono-culture + TGFB3 (mature human TGF-beta 3 [6]): 82.1 nM
IC50 (N = 1), Collagen I &III deposition, RPTEC mono-culture + TGFB3 (mature human TGF-beta 3 [6]): 64.3 nM
IC50 (N = 1), Collagen V deposition, RPTEC mono-culture + TGFB3 (mature human TGF-beta 3 [6]): 141 nM
IC50 (N = 1), Fibronectin deposition, RPTEC mono-culture + TGFB3 (mature human TGF-beta 3 [6]): 51.5 nM
IC50 (N = 2), Collagen I &III deposition, RPTEC mono-culture + TGFB3 (mature human TGF-beta 3 [6]): 124 nM
IC50 (N = 2), Collagen V deposition, RPTEC mono-culture + TGFB3 (mature human TGF-beta 3 [6]): 336 nM
IC50 (N = 2), Fibronectin deposition, RPTEC mono-culture + TGFB3 (mature human TGF-beta 3 [6]): 140 nM
IC50 (N = 3), Collagen I &III deposition, RPTEC mono-culture + TGFB3 (mature human TGF-beta 3 [6]): 67.2 nM
IC50 (N = 3), Collagen V deposition, RPTEC mono-culture + TGFB3 (mature human TGF-beta 3 [6]): 147 nM
IC50 (N = 3), Fibronectin deposition, RPTEC mono-culture + TGFB3 (mature human TGF-beta 3 [6]): 76.8 nM
Kd (mature human TGF-beta 1 [7]): 9.48 nM
Kd (mature human TGF-beta 2 [8]): 3.67 nM
Kd (mature human TGF-beta 3 [9]): 15.7 nM
kon (mature human TGF-beta 1 [10]): 74900 M⁻¹ s⁻¹
kon (mature human TGF-beta 2 [11]): 57700 M⁻¹ s⁻¹
kon (mature human TGF-beta 3 [12]): 93200 M⁻¹ s⁻¹
Kd (mature human TGF-beta 2 [13]): 0.196 nM
koff (mature human TGF-beta 1 [14]): 5.56e-05 s⁻¹
koff (mature human TGF-beta 2 [15]): 0.00017 s⁻¹
koff (mature human TGF-beta 3 [16]): 0.00339 s⁻¹
